{
  "source": "patent US10801046B2",
  "about": "“Methods and materials for biosynthesizing multifunctional, multivariate molecules via carbon chain modification” (INVISTA NORTH AMERICA S.A.R.L., priority 2016, dated 2020)",
  "molecules": {"B1": {"name": "SEQ ID NO: 122: Mesorhizobium sp. LC103 aminotransferase (protein)", "chain": "MLDKPPLSNLQARDVASVLHPYTPLHKLETMGPLVIERGEGVYVYDTQGKAYIEGMSGLWCAGLGFGDEEMIDAATEQLRTLPYYHLFGAKGTESAIELAEKLKEIAPVPISKVFFTSSGSEANDTQVKLAWYLNNALGRPNKKKIISRQKAYHGVTIMSASLTGLPYNHIGWDLPVDRVLHTDCPHYYRFGQEGESEAEFVNRMVKSLRDLIEREGPDTIAAMIAEPVMGAGGVIVPPEGYYPAIQAVLDEHDIIMISDEVINGFGRTGNWWGSQTLGMTPKTISAAKQMTSAYAPLGAVMVPEDIYQAYVSHSEKIGTFGHGFTYGGHPLGCALGVKAIEIYQKRDILGHVRSLSPQFERRMRKLTEHPLVGEARYCGLVGGVEIVADKKTKRPFDPKVGVGPQCAKFVEERGAILRAIGDTIALCPPMIIKEDELDELFDRLEKALDDTEAWVAKEGLRAL", "modifications": "Mesorhizobium sp. LC103", "notes": "Mesorhizobium sp; LC103 aminotransferase"}, "B2": {"name": "FatB2: plant thioesterase FatB2 from Cuphea hookeriana, fatty acid acyl-ACP thioesterase, positive control (protein, listed as Cuphea hookeriana)", "chain": "MVAAAASSAFFPVPAPGASPKPGKFGNWPSSLSPSFKPKSIPNGGFQVKANDSAHPKANGSAVSLKSGSLNTQEDTSSSPPPRTFLHQLPDWSRLLTAITTVFVKSKRPDMHDRKSKRPDMLVDSFGLESTVQDGLVFRQSFSIRSYEIGTDRTASIETLMNHLQETSLNHCKSTGILLDGFGRTLEMCKRDLIWVVIKMQIKVNRYPAWGDTVEINTRFSRLGKIGMGRDWLISDCNTGEILVRATSAYAMMNQKTRRLSKLPYEVHQEIVPLFVDSPVIEDSDLKVHKFKVKTGDSIQKGLTPGWNDLDVNQHVSNVKYIGWILESMPTEVLETQELCSLALEYRRECGRDSVLESVTAMDPSKVGVRSQYQHLLRLEDGTAIVNGATEWRPKNAGANGAISTGKTSNGNSVS"}, "B3": {"name": "SEQ ID NO: 102: Peptoniphilus harei ACS-146-V-Sch2b thioesterase (protein)", "chain": "MKIFCKEYEVMNFLSSDGDLKLNHLVSYLIETSNYQSIDLGLSNEKLLDMGYTWMIYKWKIKINRYPRSYEKIKIKTWASGFKNINAFREFEVYCQGEKIIEASAIFLLIDVEKRKAIKIPEVLAEIYGNNGNRIFKSIERVNEPSELEIANRFSYKILRRDLDFNNHVNNSVYLELIYEAVTDEYTHVKFKDINVNYINELKLGDEIVIDFYREEDRFYFFFKSKDQSQIYARICGVSETPIS", "modifications": "Peptoniphilus harei ACS-146-V-Sch2b", "notes": "Peptoniphilus harei ACS-146-V-Sch2b thioesterase"}, "B4": {"name": "SEQ ID NO: 74: Cellulosilyticum lentocellum thioesterase (protein, listed as Cellulosilyticum lentocellum)", "chain": "MSRLKENYQVDFDVVDFTGKLSINGLCSYMQTVAAKHATKLGINFYKNGEKPTYYWILSRVKYEIDTYPRWEDLVSLETYPGGYEKLFAVRLFDLTDEKGELIGRITGDYLLMDAEKGRPVRIKGATGPLSVLDFPYEGRKIDKIEVPEVVLREQIRKAYYSELDLNGHMNNAHYIRWTVDMLPLEVLKENEIVSLQINYNASITYGVETKLIIGKNEAGNYLVAGNSLDDSVNYFTSEIILRKNK", "modifications": "Cellulosilyticum lentocellum (strain ATCC 49066 / DSM 5427 / NCIMB 11756 / RHM5)", "notes": "Cellulosilyticum lentocellum thioesterase"}, "B5": {"name": "SEQ ID NO: 72: Terrisporobacter othiniensis thioesterase (protein, listed as Terrisporobacter othiniensis)", "chain": "MERVFTKEYEVTYRDTDARGECFLTSYMNFMADCGLSQDEKYGFVIADMVKENHTWMLVDYEITIYKYVKYKEKLRAITYIEGMNKFYAVRYFKIYNDKDDLILEGKTLVILVDSKKRRPLSIPDEHYKAYGVEEKTPTIGRNKLKLSKCKNVDYKKEFNVRYSDIDLNLHVGNVTYLGWILETIPFEIMTDYKIYSVKIKYQKELTYGDKVSVKTEMEYNDNNISAYHEIINESEEVVALLETHWNEI"}, "B6": {"name": "SEQ ID NO: 58: Spongiibacter sp. IMCC21906 thioesterase (protein)", "chain": "MTHFIQFLPGRISPRRALALLLVLLLQGALPRIVLADTILLLGDSLSAAYKIPVESSWPALLQDSIDEEHSLKNASVSGETTAGGLARLPALLAKNNTDILIIELGGNDGLRGYPLVRIRENIEKMIKLGQKKGAKVVLLGMHIPPNYGRRYADGFHNIYLSLAEENNTALLPFLLDGVAKQPRLMQGDGIHPTAEAQPIILQNVLSVLRPLLDSTN", "modifications": "Spongiibacter sp. IMCC21906", "notes": "Spongiibacter sp; IMCC21906 thioesterase"}, "B7": {"name": "SEQ ID NO: 81: Citrobacter rodentium thioesterase (protein)", "chain": "MVNFNNVFRWHLPFLFLILFTCRSVAADTLLILGDSLSAGYRMSASAAWPALLNDKWHSKTTIVNASISGDTSGQALARLPALLKQHQPRWVLVELGGNDGLRGFSPAQTEQTLRTILQNVKAASAEPLLMQIRLPANYGRRYNETFSAIYPKLASEFDIPLLPFFMEEVYLKPQWMQDDGIHPNRDAQPFIADWMAKQLSPLVKYES", "modifications": "Citrobacter rodentium (strain ICC168)", "notes": "Citrobacter rodentium thioesterase"}, "B8": {"name": "SEQ ID NO: 77: Spirochaeta smaragdinae thioesterase (protein, listed as Sediminispirochaeta smaragdinae)", "chain": "MKQVSRYTTEHTVMYSETDARGVLSLPSFFALFQEAALLHAEELGFGETYSKQENLMWVLSRLLLEIDAFPKHRDRIRLSTWPKQPQGPFAIRDYILESEEGTVCARATSSWLLLKLDTMRPIRPQTIFANLSMEGIGLAVEGTAPKISEIDNDSKQEMEVTARYSDLDQNNHVNNTRYVRWFLDCYTPEEITTSGNLHFAINYLQAASYSDKLLLRRYDTESDSSVYGYLEDGTPSFSARIERKSD", "modifications": "Sediminispirochaeta smaragdinae (strain DSM 11293 / JCM 15392 / SEBR 4228)", "notes": "Spirochaeta smaragdinae thioesterase"}, "B9": {"name": "SEQ ID NO: 79: Thermincola potens thioesterase (protein)", "chain": "MEPYQTSIPVHYYEINNHRQASPVAILNYLEEAAIRHSESVGWGIEKLLANSRGWLLTRWSLHMQKYPQWGETVNIETWPYKFERFYATREFRISDREGRVLGAATTLWVFFDLRRKRPVRIPPDIYDAYGTGAERMVADEFADLPVVDEPEIKLEFRVRLSDIDTNDHVNNTKYVEWLLETVPLSVHNGFLLSSVEIAYKKETSYGSTVLCGIKETEAGERQTTFLHIILDKDSGTELARARTVWQKRSKI", "modifications": "Thermincola potens (strain JR)"}, "B10": {"name": "SEQ ID NO: 80: Clostridium sp. CAG:306 thioesterase (protein)", "chain": "MLFTKEYEIKYYEQNVNGDLKESALLNFLQDIATLSAESLGFGPSFVFANNYAWVVLKYHIELFAPLRNLSSIVIKTEPRGIAKLYAYRDFELYTKDGQCIGKAVSTWVLIDICTRKLLNTQKILADFMAPYQKRETDLVYEKIDSPDELMYQEVFDVRFDDIDVNRHANNSNYIVWALETLPVDFRLKHSPKTIDIKYKKEIGINSRVLSEAQQILTDGNVQTLHVIKDEQNAQDLTSLKIVWQ", "modifications": "Clostridium sp. CAG:306", "notes": "Clostridium sp; CAG:306 thioesterase"}, "B11": {"name": "SEQ ID NO: 78: Opitutus terrae thioesterase (protein)", "chain": "MPEKLTLNASVLYADVDRTEVLLLRGVFKFLQEAAITHANQFDLGSRAMATRGESWVLNRMAVAVHRYPRYEETMRIETWSRGIKGFKGYREFRVFDAQGAPLFSGSSLWLYVNMRTKSIIRVPAELAAEFPKRDDGAFFPELESLEFAPPAADARRVPIAIRYSDVDVNAHVNNTAYLDFLQEALARAGLSPRPQSIRIKYARAIPAEAETVRVAIEPRGTGAAFAIEDHDTIFAIGEVD", "modifications": "Opitutus terrae (strain DSM 11246 / JCM 15787 / PB90-1)", "notes": "Opitutus terrae thioesterase"}, "B12": {"name": "SEQ ID NO: 68: Agathobacter rectalis DSM 17629 thioesterase (protein)", "chain": "MAFSFDSRIRYSEVDSSCRLSLTGLTNYFQDCSVFHSQSHDVGIRFLADNHIAWVLSSWQICINRLPLLNEQVKISTWAYGMKAFYGYRNFTLEDAGGSTLAYANSVWVLVDTRTGRPVKVPQEFADTYGLEPQLEMECAKRKLHIPDDMEKKGEIEVPQFFIDSNHHMNNEKYVMLAQQLLPNDFEISELRVEYRKEAKLGDTVISYVKYTSKSVTVVLADTDKKPYSVVEFLSKPVPGK", "modifications": "Eubacterium rectale DSM 17629", "notes": "Agathobacter rectalis DSM 17629 thioesterase"}},
  "data": [
    {"system": "not listed separately", "assay": "In vivo aminotransferase activity screening, 7-aminoheptanoate by LC-MS", "type": "cell-based, Escherichia coli", "conditions": "in vivo conversion of 7-oxoheptanoate to 7-aminoheptanoate, 120 aminotransferases screened", "experimental": "A 165-member aminotransferase library from Twist on IPTG-inducible T7- pUC expression vectors was co-transformed into T7 Express lysY/Iq with a constitutive expression pJ23150-derived plasmid bearing the phosphopantetheinyl transferase sfp from Bacillus subtilis, CAR_Srot from Invista and BioC from Serratia marcescens (UniprotKB Accession No. P36571 (SEQ ID NO: 165)). The resulting strains were incubated in 0.5 ml of rich media (terrific broth or LB containing 8% glycerol) supplemented with 0.4 mM IPTG and received 1 g/L monomethyl heptanedioate, 1 g/L heptanedioate, or no organic acid addition, depending on the experiment. Following incubation overnight at 37° C. in a shaking incubator, cells were pelleted and the supernatants were analyzed using LC-MS for 7-aminoheptanoate or monomethyl 7-aminoheptanoate. A Vibrio fluvialis aminotransferase (UniProtKB Accession No. F2XBU9 (SEQ ID NO: 128)) was used as a positive control.", "values": [
      {"molecule": "B1", "7-aminoheptanoate yield compared to the positive control (F2XBU9)": "higher 7-aminoheptanoate yields"}
    ]},
    {"system": "heptanedioyl-ACP methyl ester", "assay": "not given", "type": "cell-based, Escherichia coli", "conditions": "not given", "values": [
      {"molecule": "B2", "monomethyl heptanedioate production higher than the negative control": "about 10 mg/L"}
    ]},
    {"system": "heptanedioyl-ACP methyl ester", "assay": "not given", "type": "cell-based, Escherichia coli", "conditions": "146 thioesterases screened", "values": [
      {"molecule": "B3", "impact on monomethyl heptanedioate production": "promising"},
      {"molecule": "B4", "impact on monomethyl heptanedioate production": "promising"},
      {"molecule": "B5", "impact on monomethyl heptanedioate production": "promising"}
    ]},
    {"system": "heptanedioyl-ACP methyl ester", "assay": "not given", "type": "cell-based, Escherichia coli", "conditions": "bioH deletion strain, TB supplemented with 1 mM IPTG and 2 mM L-rhamnose", "values": [
      {"molecule": "B2", "monomethyl heptanedioate production": "approximately 14 mg/L"},
      {"molecule": "B5", "monomethyl heptanedioate production": "48 mg/L"}
    ]},
    {"system": "heptanedioyl-ACP methyl ester", "assay": "not given", "type": "cell-based, Escherichia coli", "conditions": "top 150 hits screened in vivo", "values": [
      {"molecule": "B3", "activity toward heptanedioyl-ACP methyl ester in vivo": "showed activity toward heptanedioyl-ACP methyl ester"},
      {"molecule": "B4", "activity toward heptanedioyl-ACP methyl ester in vivo": "showed activity toward heptanedioyl-ACP methyl ester"},
      {"molecule": "B6", "activity toward heptanedioyl-ACP methyl ester in vivo": "showed activity toward heptanedioyl-ACP methyl ester"},
      {"molecule": "B7", "activity toward heptanedioyl-ACP methyl ester in vivo": "showed activity toward heptanedioyl-ACP methyl ester"},
      {"molecule": "B5", "activity toward heptanedioyl-ACP methyl ester in vivo": "showed activity toward heptanedioyl-ACP methyl ester"},
      {"molecule": "B8", "activity toward heptanedioyl-ACP methyl ester in vivo": "showed activity toward heptanedioyl-ACP methyl ester"},
      {"molecule": "B9", "activity toward heptanedioyl-ACP methyl ester in vivo": "showed activity toward heptanedioyl-ACP methyl ester"},
      {"molecule": "B10", "activity toward heptanedioyl-ACP methyl ester in vivo": "showed activity toward heptanedioyl-ACP methyl ester"},
      {"molecule": "B11", "activity toward heptanedioyl-ACP methyl ester in vivo": "showed activity toward heptanedioyl-ACP methyl ester"},
      {"molecule": "B12", "activity toward heptanedioyl-ACP methyl ester in vivo": "showed activity toward heptanedioyl-ACP methyl ester"}
    ]}
  ]
}
